Source: a protein production outcome set (Wang et al. 2014)

Assay: label from the status in PepcDB records

Sequence | protein production
MIQAVFERAEDGELRSAEITGHAESGEYGLDVVCASVSTLAINFINSIEKFAGYEPILELNEDEGGYLMVEIPKDLPSHQREMTQLFFESFFLGMANLSENYSEFVQTRVITEN | not failed
MIRDYKSKLEFLAFYDELTGLPNKNSLIRWLNLKVSQMDCIDTYLIFLEVRDLEKLNVTYGYDLVDELIIHISKRIKDIAGEGNKAFKIGFDRFAIICKSENISDFIERMLSQLLLPYNVNGNLIRVNFNIGAAQIENSNEAAANLMRRCDLALIKAKEEGLNEYVIFKPSIELEHHHHHH | failed
MIREAQRSELPALLELWLESTIWGHPFIKSSYWRDCIPLVRDAYLANAQNWVWEEDGKLLGFVSIMEGRFLAAMFVAPKAVRRGIGKALMQYVQQRHPHLMLEVYQKNQPAIDFYHAQGFHIVDCAWQDETQLPTWIMSWPVVQTL | failed
MIRFEIHGDNLTITDAIRNYIEEKVGKLERYFNNVPNAVAHVRVKTYSNSTTKIEVTIPLKDVTLRAEERHDDLYAGIDLITNKLERQVRKYKTRVNRKHRDRGDQDIFVAEVQESTTNNHADDIESENDIEIIRSKQFSLKPMDSEEAVLQMNLLGHDFFIFTDRETDGTSIVYRRKDGKYGLIETTELEHHHHHH | not failed
MIRFEIHGENLTITDAIRNYIEEKIGKLERYFNDVPNATAHVKVKTYQNSATKIEVTIPLKKVTLRAEERNDDLYAGIDLINNKLERQVRKYKTRVNRRNRNRGEQEAFASLPEEKEAVEIQNDENEADNEIEIIRAKNFSLKPMDSEEAVLQMDLLGHDFFIFTDRETDGTSIVYKRKDGKYGLIETTELEHHHHHH | failed
MIRNPKIYIIILNYNAYEDTLECVKSIGNIDYDNYELVLVDNSSTDDSYVKLKESLPSYNIIKSKENLGYANGNNIGIKYALENGADYICILNNDVVVEKDFLNKLVDKIIEKEDVGIVGSCICDYYRREIIQGMGAHINLYFAAARRYFKGKNYNEIEKKDIFVDYLEGACFLVKSEVFEKIGLIPENYFLFFEETEFCTRAINAGYKIMCIYESKVYHKGSATINKFGSLSYAYLNRNRVIFVRRNSKWYQKIIFAIYIFIEAFGRIVIRKEPLTLFKYILGGFKSNKESIDVIDVKSYVKLEHHHHHH | failed
MIRQRSVIAKRAYIDEGVYIGNVVRIGEESMIHRRSRIGSGARIGGSVCIGVYCRIDGSVRIGQHADIGEWVNIDGHARIGNFARIGEWSRIGGRANIAAHVVLEKQSIIHSETCIQDASKLEHHHHHH | failed
MIRRALLIASLAALAGCAGLDAIQNAYQGIQDYFTGKDNAEPPAPLAEITPQVKADKLWMAEIGDGYDDQGINLGPAVDDSRVFAAERHGTVQAFNRLTGEKLWSVDHEMDLSAGPVFDDGELFLATAEGAVIVLNAADGALVWKSTLASEILSVPAVADDVVVVRGTNGHLTGLDRKSGATLWYFERHAPPLAIRSRGAPIIAGDLVIDGFGGGKVSAIQLKEGRLDWEANVSLPHGRSEIERLVDLSATPVVRNDVVFVSGYQGGTASLGLNTGEVQWKRESISSPAGMTADRRELYVTDANADLWQLAIRNGEDQWKQTELHQRRLTAPALVKDYLVVGDFEGYLHVLNKEDGRIVGRVQVTDAPIEYPPVVYGDIVYVYATDGTLAAITVD | failed
MIRTAKLALVAAALSTTALSPLALAAPAPAQPAATASIAVPPIVYQQRVLANGMKVFTSRDTSTPNVSVQVWYGVGSKDDPQGRSGFAHLFEHLMFKATRNMPNETVDRLTEDVGGFNNASTWDDFTNYYEVVPANHLERLIWAEADRLKSLVIDEAVFASERDVVKEELRQRVLADPYGRFFALSIPQQSFAVHPYQRPGIGSIEELDAATVDDVRAFHRTYYRPDNAALIIVGNFDQTKLDAMIDKYFGSLTTPAGAIPKVTAVEPARTGPKTVNTYGPNVPLPALAITWLAPAAADKDAPALAVLDAILTAGKSSRLYDSLVYDQKIAQSVFSSAPNNAQPGLFYVGAIMAGGKTVAQGEAALRAQVARVRDGLVTPAELAEAKAGLLADAVRRREEIDGRGFAIGYALQTEGDAAAANSSLAKLQAVTAADIQRVARQYLADDRRTVINYLPEKDRPAGEKDATPPIPKVASVKYDGPITTLAPEAEREKPPAVAAPVPAVMPTPAEKTLANGLRVIVAKSSELPLITSTLTVKGGASSDPAGLAGTSSLTSELLTEGTATRSATQVARETEALGANLAAGSGWEAASLTLSVTANNADPAMAIMADVAQNPAFKTEELDRVRAETLDGLSVAFQRPGSLASFATSPVLYAGSAYGHVAGGTPGSLPKIKREDLAKTHAAYWRPDNAVLVVTGNLSPEAGFALAEKAFGGWKKPATPPPAPPAAPTGYQPRNVVIDLPGTGQAAVVLAKPAITRADPSYYQGVVANTVLGVGFSSRLNQEIRIKRGLSYGAGSSLTPQGQFGGFSARVQTKNPSAGEVISLTRAELSRLANEPASVGELAARKSVLVGGFGRDLGTSEGLAGILGNLAVYGVPLTEIQSYAAKVEAVTPEQVQAFAKAKLDPTQMSVIVAGDAKAMGEALAKVAPNATVIPAAKLDLDAPGLTQ | failed
MIRTIQDLLNERVAIGKIVNTHGLKGEVKFFPYTNSEEIVKNLSSVVLYNSEKKAFYNLTVESVRRMNKLFLIRFKSIDTIEAAERIKGCEVFIKYEELPKLSEDEYYFYEILDCDVFYESGENVGKVVDIIETGSNDVLVVRKKKKETLIPMTKDCIVEIDKGAKKIIAKEMEWILEHHHHHH | failed
MISDNFFTEHMTIVIAVAIVLLLIIILLTCWKRVPADKALVITGLKKRVLTGKGGIQVPFLETSCIISLEAVSMTTDITEAPSKQGIFVDIAGTAVVKVDNNPEKVLIAVEQFCSGNADRTTQNIKTVVEQILEGKLRGIVSTLTVEQINEDRVAFENSIEDSITRELDNMGLRLLSYTVLKIATQGGYLENRAIPQIAQSKADADIASAERARDTEVKTAAAVREGQKAKLEAEAEIAQSDRDKTIRMEQYRAEQDKIKANADVSYKLQEIENNKIVADRNVELAKKEAQVVEEQLVASVKKPADAKKYETEVQAEANKIKSIKEAEARAQALKIEAQARADAKLLEAKAEAEAIRAQGEAEAEALKAKGIAEAEAKDRLAEAMEKYGEAAMMSMVVERLPEIMAQIAKPMEQIDKITVIDNGSGDGGSKVSKIVSDVAANGFEVLKDLTGADLGEVVRTIANKNSNNKPKTK | failed
MISIPVAQQQKLPRLVLPRVYGFPPNRETLGGTAYLIVENDGNTLIDSPPWTDGSQHWLREQGGVKRLILTHRGAIARVRAIQDTFDCEVMIHAQEAYLLPQVTVTPFNHHLAIGETLEILWTPGHSPGSACVYWSCQGGVLFTGRHLLPTPTGELAPIKTATTFHWPRQLRSVEALKAFCRQKSLSYLCPGANMGFLRGTLAIANAQAVLQGLSVDNLLCDKFLEHHHHHH | failed
MISNALKQGNLSPELEEKLVCMQKQQENANSTNEWETCSRGSVNEEALTPSRQTDDTEWKIRTSLRRPNAMTTSSQFNRILKKNRSKNDEVAELGEQKQSQLERHKELLKKNILRKRSLLERNLQSEIHEDVKTKVQRHVRPLSNASPDEQSENERSGEPNLDFKR | failed
MISPERLRVYRFFASLTDEQLKDIALISEEKSFPTGSVIFKENSKADNLMLLLEGGVELFYSNGGAGSAANSTVCSVVPGAIFGVSSLIKPYHYTSSARATKPVRVVDINGARLREMSENNQALGQVLMNNVAAAVLARLH | not failed
MISTFALFWALCIVCIINMARYYSSLRVLLMILRDCDPLLYQYVDGGGFFTSHGQPSKQIRLVGYIYAQRYLDHHDPEFIRRCERVRGQFLLTTALCGLIVISLIAMMMWY | failed
MISVAHSPDADDIFMYYAIKFGWIDCPIKNKAFHNIALDIETLNQEALKNTYDVSAISFGLYPKIANDYALLPTATSFGNGYGPKLVKKKGVKLKKDFRVALSGEHTTNALLFKIYYKHARITYMNFLDIEKAVLEEKVHAGVLIHESILDFHNELEVEKELWDVWKELIEVDLPLPLGGMAIRRSIPLYRAILIKKALIKAVEVALKHQNLLSGMLLERSLIRVNKERLRTYLSLYANETSTRLSEIQILAIDKLFELGYQHGFYASLLKTKDCLLTDEYLKYRFS | failed
MITFIGHVSKDVNVVDGKREIAYGGGVVMGAITSSLLGVKTKVITKCTREDVSKFSFLRDNGVEVVFLKSPRTTSIENRYGSDPDTRESFLISAADPFTESDLAFIEGEAVHINPLWYGEFPEDLIPVLRRKVMFLSADAQGFVRVPENEKLVYRDWEMKEKYLKYLDLFKVDSREAETLTGTNDLRESCRIIRSFGAKIILATHASGVIVFDGNFYEASFRSWSLEGRTGRGDTCTAAFLVGFVFKKMSIEKATKFAAAVTSVKMRHPGPLRREDLEAISGDQYF | not failed
MITGTLINALTVVFASLLGLAIGSRLSESIRGAIINVLGLAVLLIGISMALETKNVLIPTLSVVAGTAVGEVMGIEKALQSFGDRVERRLGKGRFSEGFVAATLLYCVGPMAILGPIQEGLTGDMSVLMAKSLLDGVASVALASALGIGVAFSSISILVYQGFFALLAAQLSSVVTERIIAEFTSTGGLLIMGIGINLLELRKLRVGNMLPALIFAPLIVAVLQLTGL | failed
MITILIFINIVKVVLFLFFLMTGTKIISGKMADEFKRFGLPSFFNFLTGAFEIVGAIGMLIGIWISTVALWAGLLLGGTMLAAALTLIVLARDPFKKAIPALVLFVLSLGISLYHIF | failed
MITLQKAEASDLEKIIAIQRASFKAVYEKYHDQYDPYVEEVEQIRWKLVERPDCFYHFVLVDETIVGFLRLVIKDEEKRAWLGTAAILPQYQGQGYGSAAMALLEKTYPKLTKWDLCTIAQEKLMVSFYEKCGYHSTHTEPEQEGMDMVYMTKKIE | failed
MITLTTDFGLKGPYVGEMKVAMLRINPNAKIVDVTHSVTRHSILEGSFVMEQVVKYSPKGTVHVGVIDPGVGTERRAIVIEGDQYLVVPDNGLATLPLKHIKVKSVYEIIPDKIRKFTGWEISSTFHGRDIFGPAGALIEKGIHPEEFGREIPVDSIVKLNVEPRKEGDVWILKVIYIDDFGNVILNLENYEKPRTVELLDFNLRLPYLETYGLVEKGEMLALPGSHDYLEIAVNMGSAAERLNVKVGDELRVRLL | not failed
MITRSEIFEYAEKTFGAKPDYPFKTYPHYAILRHLDDQKWFGLVMNVPKDKLGLEGEGDVDVIDIKCHPDKVHDLKIKAGFLPAYHMNKEHWLTAVLDGSVTKEEVFSLLAESYELTK | failed
MITYHSNALQSERQMYVWTPPGYTGMGEPLPVLYFYHGFGDTGRSAIDQGRIPQIMDNLLAEGKIKPMLVVIPDTETDAKGIIPEDFVPQERRKVFYPLNAKAADRELMNDIIPLISKRFSVRKDADGRALAGLSQGGYQALVSGMNHLESFGWLATFSGVTTTTVPDEGVAARLNDPAAINQQLRNFTVVVGDKDVVTGKDIAGLKTELEQKKIKFDYQEYPGLNHEMDVWRPAYAAFVQKFKIRHLEHHHHHH | failed
MIVAAPEQYSRDRDWQQAIAAGELTLALQPQMGLRNRQLRGFEVQLRWQHPQQGTLLASQLMEHLEQSQHRETVGRWFLDQAGQLLSQWRNSAQFSGLFALSLLPQQWKSPSFIHDLRSLLETYQIPPEQLELDLPAQSLAESAAESWDWVYAVRDLGIGIGLADFGSRSIGLYDLRNLPLTTLKLERRFVRGLPDDANDRAIVRGVVAMSQALKVRIVARGVDTVDQAKFLARAECDAMQGLAYSAPLEHHHHHH | failed
